# Marks after values point to notes of the source that are not given here.
# Tests used:
# [1] = Size exclusion chromatography (SEC-UV) of Pelgifatamab TACs; format: physicochemical; details: SEC-UV of TAC after radiolabeling
# Method: Purity of the TACs were determined by SEC-UV. The method separates higher aggregate, dimer and fragments from the ACC monomer. The separation was done using a Acquity UPLC Protein BEH SEC, 1.7 μm, 200 Å, 4.6×300 mm column operated at 30° C. The mobile phase was 170 mM Ammonium acetate and 300 mM NaCl containing 10% 2-propanol and 0.1 mM DCTA. The flowrate was 0.3 mL/min, and the ACCs were detected at UV 280 nm. The analysis was performed on an Agilent 1200 series HPLC with 35 μL injections.
# [2] = Radiochemical purity (RCP) of Pelgifatamab TACs by iTLC; format: physicochemical; details: for RCP (radiochemical purity): iTLC after Ac-225 labeling at 2 MBq/mg, macropa at room temperature, DOTA at 60° C., one hour
# Method: The mixture was incubated for one hour at room temperature for macropa-Pelgifatamab while the two DOTA-Pelgifatamab ACCs were incubated for one hour at 60° C. on a heating block. The RCP of the TACs was measured by instant thin layer chromatography using citrate buffer for elution, three replicates for each sample. […] The measurement of radioactivity was done with a Digital Gamma-Ray Spectrometer (DSPEC-50, Ortec). The activities were measured at least 6 hours after radiolabeling to allow daughter nuclides to be in equilibrium with Ac-225. […] Pelgifatamab-macropa and the PSMA binding antibody J591 conjugated with DOTA were both labeled with actinium-225. Labeling was performed at room temperature. J591-DOTA was also labeled at 60° C. Radiochemical purity was determined by instant thin-layer chromatography (iTLC). Labeled and free actinium-225 were counted in a germanium detector using actinium-225 specific energy lines. Actinium-225-labeling of pelgifatamab was efficient at room temperature as compared with actinium-225-labeling of the murine monoclonal PSMA antibody J591 (225Ac-J591, FIG. 8).
# [3] = system: PSMA expression in VCaP cells; assay: PSMA protein expression by flow cytometry; format: cell-based; details: androgen-dependent VCaP cells, 0.08-5 μM darolutamide for 7 days
# Method: (§1) The effect of darolutamide and 225Ac-pelgifatamab on PSMA mRNA and protein expression in vitro was studied in VCaP and 22Rv1 prostate cancer cells. To assess PSMA protein expression, VCaP and 22Rv1 cells were treated with 0.08-5 μM darolutamide for 7 days and PSMA expression was determined by flow cytometry using the murine PSMA-specific monoclonal antibody (mAb) J591 (prepared in-house). To assess FOLH1 gene expression, 22Rv1 cells were treated with 2 μM darolutamide and/or 0.15 kBq/mL 225Ac-pelgifatamab for 24 or 48 h. RNA was extracted with the RNeasy Plus Mini Kit (Qiagen), transcribed to cDNA using SuperScript IV VILO Master Mix (Invitrogen), and analyzed by qPCR.
# [4] = system: PSMA expression in 22Rv1 cells; assay: PSMA protein expression by flow cytometry; format: cell-based; details: androgen-independent 22Rv1 cells, 0.08-5 μM darolutamide for 7 days
# Method: as §1
# [5] = system: PSMA expression in 22Rv1 tumors; assay: In vivo PSMA protein expression in 22Rv1 tumors by flow cytometry; design: species or system mice; details: isolated 22Rv1 tumors, darolutamide 100 mg/kg BID p.o. for 18 days
# Method: In vivo expression of PSMA protein was evaluated in 22Rv1 prostate tumor-bearing male nude (nu/nu) mice treated with vehicle or darolutamide (100 mg/kg, BID, p.o) for 18 days. 22Rv1 tumors were extracted (n=2) and dissociated tumor cells were analyzed by flow cytometry using the J591 antibody.
# [6] = system: 22Rv1 tumors; assay: In vivo efficacy in 22Rv1 prostate cancer model; design: species or system mice; details: 22Rv1, day 16
# Method: The in vivo antitumor efficacy of 225Ac-pelgi in combination with darolutamide was evaluated in the androgen-independent prostate cancer model 22Rv1.
# [7] = system: KUCaP-1 tumors; assay: In vivo antitumor efficacy in KUCaP-1 model; design: species or system mice
# Excerpt: In a KUCaP-1 efficacy study, male scid/scid mice (8 weeks, 22 g, Janvier Labs) were implanted s.c. with 5×5×5 mm KUCaP-1 tumor fragments. When the tumors reached an average size of 220 mm^3, mice were randomized (n=9-10 mice/group), and the next day, treated with vehicle or a single i.v. injection of isotype control (300 kBq/kg, […] mg/kg). In addition, for one treatment group, tumors were allowed to reach a size of 470 mm^3, before treatment with a single dose of 300 kBq/kg ^225Ac-pelgi. The study was terminated on day 72 after tumor cell inoculation.
# [8] = system: LNCaP prostate cancer model; assay: In vivo antitumor efficacy in LNCaP model; design: species or system mice; details: total antibody dose 0.75 mg/kg
# Method: Antitumor efficacy of 225Ac-pelgifatamab was assessed in the LNCaP prostate cancer model: Male SCID mice (6 weeks, 22 g, Janvier Labs) were implanted s.c. with testosterone pellets (12.5 mg, 4 mm) and 1-3 days later, inoculated s.c. with 5×10^6 LNCaP cells. When the tumors reached an average size of 160 mm^3, mice were randomized (n=10 mice/group), and two days later, treated with vehicle or a single i.v. dose of ^225Ac-pelgifatamab (70, 125, or 250 kBq/kg, total antibody dose 0.75 mg/kg). The study was terminated on day 112 after tumor cell inoculation.
# [9] = system: LNCaP cells; details: 5 days
# Method: (§2) Cells were treated for 5 days and subsequentially cell viability was determined using CellTiterGlo (Promega).
# [10] = system: CDKN1A; assay: Gene expression by RT-qPCR in 22Rv1 cells; format: cell-based; details: 24 or 48 h
# [11] = system: PC-3 cells; details: PSMA negative PC-3 cells, 5 days
# Method: as §2
# [12] = system: XRCC2; assay: Gene expression by RT-qPCR in 22Rv1 cells; format: cell-based; details: 24 or 48 h
# [13] = system: 22Rv1 cells; details: 22Rv1 cells (printed 22R1), 5 days
# Method: as §2
# [14] = system: C4-2 cells; details: 5 days
# Method: as §2
# [15] = system: C4-2 prostate cancer cells xenograft; assay: In vivo efficacy study in C4-2 xenograft; design: species or system mice; details: single dose IV 300 kBq/kg, total antibody dose 0.14 mg/kg
# Method: The compounds Ac-225-macropa-Pelgifatamab, Ac-225-DOTA-Pelgifatamab and isotype-macropa were labeled with 225Ac. Mice xenografted with C4-2 prostate cancer cells were treated with a single dose IV of 300 kBq/kg with a total antibody dose of 0.14 mg/kg. […] Body weight loss was less than 10% for all targeted treatment groups. Effects on the hematopoietic system were determined by WBC counts at the end of the experiment (FIG. 16 (C)).
# [16] = system: PSMA-expressing prostate cancer xenograft model MDA PCa 2b; details: 72-504 hours
# Method: Biodistribution of Ac-225-macropa-Pelgifatamab was investigated in the PSMA-expressing prostate cancer xenograft model MDA PCa 2b. Female RJ: NMRI-Foxn1nu/nu mice were implanted with testosterone pellets subcutaneously and were inoculated with 1×10^6 MDA PCa 2b cells on the right flank. Animals were pre-treated with 200 μg/mouse unspecific IgG2a antibody 24 hours prior to hot dosing. Animals were treated with 300 kBq/kg Ac-225-macropa-Pelgifatamab IV at a total protein dose of 0.75 mg/kg. In a separate in vivo study the xenograft model MDA PCa 2b was treated with 250 kBq/kg Ac-225-DOTA-Pelgifatamab at a protein dose of 0.14 mg/kg. In both studies, animals were sacrificed 72, 168, 336, and 504 hours post treatment and 225Ac in blood, tumor, liver, kidney, spleen and femur was determined.
# [17] = system: DU-145 cells; details: PSMA negative DU-145 cells, 5 days
# Method: as §2
# [18] = 300 kBq/kg IV, 0.75 mg/kg total protein
molecule,measurement,setting,value
Ac-225-DOTA-Pelgifatamab CAR 5.7,Aggregate,[1],18.4 Area % (UV)
same,Dimer,[1],3.0 Area % (UV)
same,Monomer,[1],78.6 Area % (UV)
same,RCP (radiochemical purity),[2],99.2%
Ac-225-DOTA-Pelgifatamab CAR 12.7,Aggregate,[1],30.5 Area % (UV)
same,Dimer,[1],4.8 Area % (UV)
same,Monomer,[1],64.7 Area % (UV)
same,RCP (radiochemical purity),[2],99.5%
"CC(O)c1cc(C(=O)N[C@@H](C)Cn2ccc(-c3ccc(C#N)c(Cl)c3)n2)[nH]n1 (some centres unmarked) [Darolutamide, darolutamide]",induction of PSMA expression,[3],more than 10 fold
same,induction of PSMA expression,[4],> 2 fold
same,increase in PSMA expression compared with vehicle,[5],50 fold
same,T/C,"[6]; 100 mg/kg, BID, p.o.",0.78
Ac-225-macropa-Pelgifatamab,T/Cvolume ratio,[7]; 75 kBq/kg single dose,0.55
same,T/Cvolume ratio,[7]; 150 kBq/kg single dose,0.44
same,T/Cvolume ratio,[7]; 300 kBq/kg single dose,0.26
same,effect on large tumors,"[7]; single dose 300 kBq/kg, tumors 470 mm^3 at treatment start",induced tumor regression
same,T/Cvolume (treatment/control) ratio,[8]; 70 kBq/kg single dose i.v.,0.00
same,T/Cvolume (treatment/control) ratio,[8]; 125 kBq/kg single dose i.v.,0.00
same,T/Cvolume (treatment/control) ratio,[8]; 250 kBq/kg single dose i.v.,0.00
same,cytotoxicity,[9],Strong cytotoxicity
same,RNA expression of CDKN1A,[10],increased
same,cytotoxicity,[11],little cytotoxicity
same,expression of XRCC2,[12],decreased
same,cytotoxicity,[13],Strong cytotoxicity
same,cytotoxicity,[14],Strong cytotoxicity
same,antitumor activity compared with Ac-225-DOTA-Pelgifatamab,[15],higher antitumor activity
same,radioactivity in the liver compared with 225Ac-DOTA-Pelgifatamab,[16],lower and over time decreasing radioactivity
same,uptake in the spleen compared with 225Ac-DOTA-Pelgifatamab,[16],less uptake
same,accumulation in normal organs,[16]; [18],generally low and transient
same,tumor accumulation of 225Ac,[16]; [18],strong and persistent tumor accumulation
same,clearance from the bone compared with 225Ac-DOTA-Pelgifatamab,[16]; femur,improved clearance
same,Dimer,[1],0.5 Area % (UV)
same,Monomer,[1],99.5 Area % (UV)
same,RCP (radiochemical purity),[2],99.9%
same,radiochemical purity,[2]; iTLC after radiolabeling at room temperature (FIG. 8),100%
same,cytotoxicity,[17],little cytotoxicity
same,T/C,"[6]; 75 kBq/kg, single dose, i.v.",0.71
same,T/C,"[6]; 300 kBq/kg, single dose, i.v.",0.41 ***

# — patent publication US20250319216A1, “RADIOPHARMCEUTICAL COMPLEXES TARGETING PROSTATE-SPECIFIC MEMBRANE ANTIGEN AND ITS COMBINATIONS” (Bayer Aktiengesellschaft, priority 2022, published 2025)
